Data taken from publication PMC11236828 (Bioresources and Bioprocessing, 2024).

Key:
Formate oxidase (FOx) = biological target: T1, Formate oxidase (FOx) (Aspergillus oryzae, UniProt Q2UD26); assay: UV-visible absorption spectra of purified enzyme; type: binding; details: 4 °C
T1 construct: gene AO090012000349; synthetic gene in pET28a(+) (NdeI-HindIII), expressed in E. coli BL21(DE3), purified on Ni-Sepharose; His tag cleavage not mentioned; contains FAD / 8-formyl FAD
T1 sequence (Q2UD26 2-578): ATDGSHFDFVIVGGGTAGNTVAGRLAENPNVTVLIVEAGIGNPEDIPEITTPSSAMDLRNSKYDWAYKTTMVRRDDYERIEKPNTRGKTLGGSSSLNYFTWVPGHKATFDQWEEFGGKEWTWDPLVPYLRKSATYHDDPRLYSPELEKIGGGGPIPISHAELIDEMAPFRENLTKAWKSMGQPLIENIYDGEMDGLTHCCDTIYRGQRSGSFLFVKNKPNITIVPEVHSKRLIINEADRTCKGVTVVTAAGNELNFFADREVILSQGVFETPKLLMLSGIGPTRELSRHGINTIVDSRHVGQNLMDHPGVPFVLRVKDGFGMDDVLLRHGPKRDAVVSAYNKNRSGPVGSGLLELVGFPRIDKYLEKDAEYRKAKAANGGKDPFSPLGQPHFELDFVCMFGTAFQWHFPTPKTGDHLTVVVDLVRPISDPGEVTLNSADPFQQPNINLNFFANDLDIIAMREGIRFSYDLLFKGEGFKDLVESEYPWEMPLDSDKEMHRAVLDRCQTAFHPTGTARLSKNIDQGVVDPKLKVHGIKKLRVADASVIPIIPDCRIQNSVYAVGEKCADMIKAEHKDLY

purified protein = substrate: O=CO; assay: purified protein; details: 50 mM sodium acetate pH 5.0, 25 °C, air oxygen, enzyme 14 h after purification (8-formyl FAD formed)

Cc1cc2nc3c(=O)[nH]c(=O)nc-3n(C[C@H](O)[C@H](O)[C@H](O)COP(=O)(O)OP(=O)(O)OC[C@H]3O[C@@H](n4cnc5c(N)ncnc54)[C@H](O)[C@@H]3O)c2cc1C=O [8-formyl FAD]
UV-visible absorption spectra of purified enzyme (Formate oxidase (FOx); formed in situ from bound FAD, 14 h): conversion of FAD to 8-formyl FAD within the active site of FOx

Cc1cc2nc3c(=O)[nH]c(=O)nc-3n(C[C@H](O)[C@H](O)[C@H](O)COP(=O)(O)OP(=O)(O)OC[C@H]3O[C@@H](n4cnc5c(N)ncnc54)[C@H](O)[C@@H]3O)c2cc1C [FAD]
UV-visible absorption spectra of purified enzyme (Formate oxidase (FOx); copurified cofactor, autocatalytically converted to 8-formyl FAD): conversion of FAD to 8-formyl FAD within the active site of FOx

B1: Formate oxidase (FOx) (Aspergillus oryzae RIB40) (protein)
chain: T1 sequence (Q2UD26 2-578)
Km (purified protein): 96 ± 3.1 mM | kcat (purified protein): 102 s⁻¹ | kcat/Km (purified protein): 1100 M⁻¹ s⁻¹
